Laboratory results reported in US20150344570A1 (published 2015).

T1: FcγRIIa R (human, UniProt P12318 34-217)
T1 construct: extracellular domain; also called FcgRIIa R type; 2aR
T1 sequence (looked up): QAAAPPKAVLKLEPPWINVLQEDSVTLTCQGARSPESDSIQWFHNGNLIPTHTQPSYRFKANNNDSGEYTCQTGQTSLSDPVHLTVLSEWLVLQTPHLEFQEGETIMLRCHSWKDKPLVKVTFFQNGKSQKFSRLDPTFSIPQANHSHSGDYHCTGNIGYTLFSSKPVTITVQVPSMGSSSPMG

T2: FcγRIIb (human, UniProt P31994 43-217)
T2 construct: extracellular domain; also called FcgRIIb; 2b
T2 sequence (looked up): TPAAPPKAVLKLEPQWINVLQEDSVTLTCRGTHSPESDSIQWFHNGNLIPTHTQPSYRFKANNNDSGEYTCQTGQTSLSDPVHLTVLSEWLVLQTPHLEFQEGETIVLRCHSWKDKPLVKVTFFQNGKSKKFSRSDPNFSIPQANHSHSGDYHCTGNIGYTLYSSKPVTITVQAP

B1: GpH7-A5/GpH7-B3 variant D265_13S/GpL16-k0 (antibody, human IgG1, kappa)
heavy 1: not shown
heavy 2: not shown
light: DIVMTQSPLSLPVTPGEPASISCQASESLVHSNRNTYLHWYLQKPGQSPQLLIYKVSNRFSGVPDRFSGSGSGTDFTLKISRVEAEDVGVYYCSQNTHVPPTFGQGTKVEIERTVAAPSVFIFPPSDEQLKSGTASVVCLLNNFYPREAKVQWKVDNALQSGNSQESVTEQDSKDSTYSLSSTLTLSKADYEKHKVYACEVTHQGLSSPVTKSFNRGEC
notes: heterodimerized anti-glypican-3 IgG1; alteration in one H chain only; also called He Ab
B2: GpH7-A5/GpH7-B3 variant S298_09D/GpL16-k0 (antibody, human IgG1, kappa)
heavy 1: not shown
heavy 2: not shown
light: B1 light
notes: Alteration in one H chain only; also called He Ab S298_09D
B3: GpH7-A5/GpH7-B3 variant S337_11K/GpL16-k0 (antibody, human IgG1, kappa)
heavy 1: not shown
heavy 2: not shown
light: B1 light
notes: Alteration in one H chain only; also called He Ab S337_11K
B4: GpH7-A5/GpH7-B3 variant Y300_07I/GpL16-k0 (antibody, human IgG1, kappa)
heavy 1: not shown
heavy 2: not shown
light: B1 light
notes: Alteration in one H chain only; also called He Ab Y300_07I
B5: GpH7-A5/GpH7-B3 variant T335_13S/GpL16-k0 (antibody, human IgG1, kappa)
heavy 1: not shown
heavy 2: not shown
light: B1 light
notes: Alteration in one H chain only; also called He Ab T335_13S
B6: GpH7-A5/GpH7-B3 variant S324_10E/GpL16-k0 (antibody, human IgG1, kappa)
heavy 1: not shown
heavy 2: not shown
light: B1 light
notes: Alteration in one H chain only; also called He Ab S324_10E
B7: GpH7-A5/GpH7-B3 variant Y296_08L/GpL16-k0 (antibody, human IgG1, kappa)
heavy 1: not shown
heavy 2: not shown
light: B1 light
notes: Alteration in one H chain only; also called He Ab Y296_08L
B8: GpH7-A5/GpH7-B3 variant Y296_07I/GpL16-k0 (antibody, human IgG1, kappa)
heavy 1: not shown
heavy 2: not shown
light: B1 light
notes: Alteration in one H chain only; also called He Ab Y296_07I
B9: GpH7-A5/GpH7-B3 variant S337_14T/GpL16-k0 (antibody, human IgG1, kappa)
heavy 1: not shown
heavy 2: not shown
light: B1 light
notes: Alteration in one H chain only; also called He Ab S337_14T
B10: GpH7-A5/GpH7-B3 variant S324_09D/GpL16-k0 (antibody, human IgG1, kappa)
heavy 1: not shown
heavy 2: not shown
light: B1 light
notes: Alteration in one H chain only; also called He Ab S324_09D
B11: GpH7-A5/GpH7-B3 variant S337_16H/GpL16-k0 (antibody, human IgG1, kappa)
heavy 1: not shown
heavy 2: not shown
light: B1 light
notes: Alteration in one H chain only; also called He Ab S337_16H
B12: GpH7-A5/GpH7-B3 variant S267_14T/GpL16-k0 (antibody, human IgG1, kappa)
heavy 1: not shown
heavy 2: not shown
light: B1 light
notes: Alteration in one H chain only; also called He Ab S267_14T
B13: GpH7-A5/GpH7-B3 variant S267_19Q/GpL16-k0 (antibody, human IgG1, kappa)
heavy 1: not shown
heavy 2: not shown
light: B1 light
notes: Alteration in one H chain only; also called He Ab S267_19Q
B14: GpH7-A5/GpH7-B3 variant T335_01G/GpL16-k0 (antibody, human IgG1, kappa)
heavy 1: not shown
heavy 2: not shown
light: B1 light
notes: Alteration in one H chain only; also called He Ab T335_01G
B15: GpH7-A5/GpH7-B3 variant T335_02A/GpL16-k0 (antibody, human IgG1, kappa)
heavy 1: not shown
heavy 2: not shown
light: B1 light
notes: Alteration in one H chain only; also called He Ab T335_02A
B16: GpH7-A5/GpH7-B3 variant S267_18N/GpL16-k0 (antibody, human IgG1, kappa)
heavy 1: not shown
heavy 2: not shown
light: B1 light
notes: Alteration in one H chain only; also called He Ab S267_18N
B17: GpH7-A5/GpH7-B3 variant Y296_03V/GpL16-k0 (antibody, human IgG1, kappa)
heavy 1: not shown
heavy 2: not shown
light: B1 light
notes: Alteration in one H chain only; also called He Ab Y296_03V
B18: GpH7-A5/GpH7-B3 variant Y300_16H/GpL16-k0 (antibody, human IgG1, kappa)
heavy 1: not shown
heavy 2: not shown
light: B1 light
notes: Alteration in one H chain only; also called He Ab Y300_16H
B19: GpH7-A5/GpH7-B3 variant S337_18N/GpL16-k0 (antibody, human IgG1, kappa)
heavy 1: not shown
heavy 2: not shown
light: B1 light
notes: Alteration in one H chain only; also called He Ab S337_18N
B20: GpH7-A5/GpH7-B3 variant Y296_02A/GpL16-k0 (antibody, human IgG1, kappa)
heavy 1: not shown
heavy 2: not shown
light: B1 light
notes: Alteration in one H chain only; also called He Ab Y296_02A

Target: T1, FcγRIIa R
Assay: SPR (Biacore); He/Con_2aR divided by He/Con_2b (FcγRIIa R over FcγRIIb)

He_2aR/2b (IIaR/IIb)	Binder
1.81 ratio	B1

Target: T3, FcγRIa (human, UniProt P12314 16-292)
T3 construct: extracellular domain; also called FcgRI; FcgRIa; not shown: His tag attached to the C terminus
Assay: SPR (Biacore), relative binding; control HeCon Ab GpH7-A5/GpH7-B3/GpL16-k0

T3 sequence (P12314 16-292): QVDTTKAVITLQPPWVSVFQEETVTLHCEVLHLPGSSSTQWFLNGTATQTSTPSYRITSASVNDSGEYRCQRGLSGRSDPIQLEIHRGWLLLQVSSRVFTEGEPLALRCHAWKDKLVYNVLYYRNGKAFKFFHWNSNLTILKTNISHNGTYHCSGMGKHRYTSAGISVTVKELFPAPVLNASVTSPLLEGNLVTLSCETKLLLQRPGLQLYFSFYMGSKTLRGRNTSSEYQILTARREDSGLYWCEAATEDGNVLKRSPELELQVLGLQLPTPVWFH

He/Con_1a	Binder
106 % of control (=100)	B2
104 % of control (=100)	B3
108 % of control (=100)	B4
105 % of control (=100)	B5
105 % of control (=100)	B6
104 % of control (=100)	B7
104 % of control (=100)	B8
105 % of control (=100)	B9
104 % of control (=100)	B10
105 % of control (=100)	B11
102 % of control (=100)	B12
102 % of control (=100)	B13
104 % of control (=100)	B14
103 % of control (=100)	B15
102 % of control (=100)	B16
104 % of control (=100)	B17
111 % of control (=100)	B18
105 % of control (=100)	B19
103 % of control (=100)	B20

Target: T1, FcγRIIa R
Assay: SPR (Biacore), captured antibody, FcγR as analyte; relative binding, control GpH7-A5/GpH7-B3/GpL16-k0 = 100
Experimental: (§1) The heterodimerized antibodies He Abs in which one of the H chains was introduced with an alteration were assayed for their binding activities to each activating FcγR and inhibitory FcγR according to the method described in Example 4. […] The activating FcγRs in FIGS. 26, 27, 28, and 29 are FcγRIa, FcγRIIa (R), FcγRIIa (H), and FcγRIIIa, respectively.
(§2) Analysis of interaction between objective antibody and the FcγR was carried out using Biacore T100 (GE Healthcare). HBS-EP+ (GE Healthcare) was used as the running buffer, and the measurement temperature was set to 25° C. Chips produced by immobilizing the antigen peptide by the amine coupling method to a Series S Sencor Chip CM5 (GE Healthcare), or alternatively, chips produced by allowing preliminarily biotinylated antigen peptides to interact with and immobilize onto a Series S Sensor Chip SA (certified) (GE Healthcare) were used. Antibodies of interest were captured onto an antigen peptide-immobilized chip, and allowed to interact to each FcγR diluted with running buffer. To regenerate and repeatedly use the chip, the antibodies captured on the chip were washed off by reacting 10 mM glycine-HCl, pH 1.5.

He/Con_2aR	Binder
20.5 control = 100	B1

Target: T2, FcγRIIb
Assay: as above
Experimental: as §1, §2

He/Con_2b	Binder
11.3 control = 100	B1
